The record followed here is patent publication US20220396632A1 (VERSEAU THERAPEUTICS, published 2022).

Changes are numbered by the printed parent chain.

In general, EC50 refers to the midpoint of the concentration-response curve.

Experiment [1] addresses T1, PSGL-1 endogenously expressed on HL-60 cells (UniProt Q14242 42-412).
T1 construct: whole, on cells
T1 sequence (looked up): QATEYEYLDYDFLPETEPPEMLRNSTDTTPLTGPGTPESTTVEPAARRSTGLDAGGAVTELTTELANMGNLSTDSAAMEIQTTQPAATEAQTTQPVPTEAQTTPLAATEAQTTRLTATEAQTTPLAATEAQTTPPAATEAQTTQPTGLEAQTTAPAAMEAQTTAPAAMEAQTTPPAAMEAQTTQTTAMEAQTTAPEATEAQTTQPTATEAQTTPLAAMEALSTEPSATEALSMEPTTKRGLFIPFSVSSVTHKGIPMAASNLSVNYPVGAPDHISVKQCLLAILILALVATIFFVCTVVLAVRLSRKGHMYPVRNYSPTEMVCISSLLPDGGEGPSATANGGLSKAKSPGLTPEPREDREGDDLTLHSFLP
The experiment is described as follows: flow cytometry on HL-60 cells; against parent 20I15. As for the experimental part:
(§1) A typical flow cytometry assay was performed by resuspending HL-60 cells in FACS buffer (5% FBS and 0.05% Sodium Azide in PBS, pH 7.2) on ice, pelleting cells by centrifugation at 500×g for 3 min, washing cells with FACS buffer, and then blocking Fc receptors on the cells with Fc block (human TruStain FcX™, BioLegend Cat. #422302) on ice for 10 min. After washing, 50,000 cells/50 ul in FACS buffer was added to each well of a 96-well round bottomed plate (Costar, Cat. #3797), and 50 ul of serially diluted (0.06 nM-1.0 uM) test or isotype control antibody was added into duplicate wells. The plate was covered and incubated on ice for 1 h. After washing, Phycoerythrin (PE) conjugated anti-human IgG secondary antibody (Abcam; Cat. #ab99825) was added to each well and the plate incubated in the dark on ice for 30 min. After washing, the cells were fixed (1% paraformaldhyde).

The target in experiment [2] is T2, Biotin PSGL-1(42-62) L49A peptide (C-terminal Lys-biotin).
T2 peptide: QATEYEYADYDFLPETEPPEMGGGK
The experiment is described as follows: alanine-scan ELISA, streptavidin-immobilized biotin peptide. On the technique in general: An ELISA detects its analyte on a solid surface through an enzyme-linked reagent.

Experiment [3] deals with T3, Biotin PSGL-1(42-62) P55A peptide (C-terminal Lys-biotin).
T3 peptide: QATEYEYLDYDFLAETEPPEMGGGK
The experiment is described as above.

For experiment [4], the target named is T4, Biotin PSGL-1(42-62) E56A peptide (C-terminal Lys-biotin).
T4 peptide: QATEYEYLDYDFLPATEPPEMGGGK
Described as above.

Experiment [5] has as its target T5, Biotin PSGL-1(42-62) L54A peptide (C-terminal Lys-biotin).
T5 peptide: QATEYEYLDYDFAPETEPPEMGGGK
The experiment is described as above.

For experiment [6], the target named is T6, Biotin Y46,48,51(SO3) PSGL-1(42-62) peptide (human, sulfotyrosine at Y46, Y48 and Y51; C-terminal Lys-biotin).
T6 construct: also called fully sulfated N-terminal PSGL-1 peptide
T6 peptide: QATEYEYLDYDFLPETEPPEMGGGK
The experiment can be described thus: ELISA, plate-bound mAb captures biotin 3 x sY peptide. As to the method:
A typical ELISA for N-terminal PSGL-1 reactive humanized mAbs binding to Y_{46,48,51}(SO₃) PSGL-1₍₄₂₋₆₂₎ involved coating high binding half-well plates (Corning Cat. #3690) with 3 ug/mL/25 ul per well of the mAbs or with an isotype hG4 control in PBS, pH 7.4, overnight at 4° C. […] Biotinylated Y_{46,48,51}(SO₃) PSGL-1₍₄₂₋₆₂₎ was added (25 ul per well) in duplicate at 2.8 uM in assay buffer (blocking buffer containing 0.05% tween 20) and serially diluted into test and control (just blocked) wells, and the plate incubated for 45 min at 37° C. The plate was washed ×3 and an appropriate HRP-conjugated streptavidin was added (25 ul per well; Jackson Immunoresearch, Cat. #016-030-084) and the plate was incubated for 45 min at 37° C. […] For each antibody, an EC50 value was determined from sigmoidal fitted peptide titration curve.

Experiment [7] has as its target T7, Biotin PSGL-1(105-125) peptide (human, N-terminal acetyl; C-terminal Lys-biotin).
T7 peptide: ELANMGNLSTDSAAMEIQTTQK
The experiment can be described thus: ELISA; against WT PSGL-1(ECD)-hFc1. The gist of the method:
(§2)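 Detection via HRP goat anti-mouse/anti-human IgG (45 min, 37 °C) and TMB at A450 nm, after mAb binding for 45 min at 37 °C to plate-bound PSGL-1 protein or biotin peptide on streptavidin. Assay buffer was PBS, 3% BSA, 0.05% Tween 20, pH 7.4; duplicate means minus background.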

The target of experiment [8] is T7, Biotin PSGL-1(105-125) peptide. The experiment is described as follows: ELISA, plate-bound peptide or protein. The gist of the method:
as §2

Experiment [9] addresses T8, Biotin PSGL-1(290-310) peptide (human, N-terminal acetyl; C-terminal Lys-biotin).
T8 peptide: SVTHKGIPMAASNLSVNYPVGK
The experiment is described as follows: ELISA, streptavidin-immobilized biotin peptide. As for the experimental part: (§3) A typical ELISA experiment involved binding of a single concentration or serially diluted mAb in assay buffer (3% BSA in PBS containing 0.05% Tween®20, pH 7.4) onto BSA blocked high binding microtiter plate half-wells (Corning Cat. #3690), which contained PSGL-1 protein or streptavidin-immobilized biotin peptide. After incubation for 45 min. at 37° C., the plate was washed 3 times with wash buffer (PBS containing 0.05% Tween®20, pH 7.4), and an appropriate HRP-conjugated secondary antibody added (25 ul/well) (HRP goat anti-mouse or anti-human IgG). After 45 min. incubation at 37° C., the plate was washed and antibody bound to plate-immobilized target was determined at A450 nm using HRP substrate (3,3′5,5′-tetramethylbenzidine (TMB)). For each antibody, duplicate values were averaged and assay background subtracted.

In experiment [10] the target is T9, 42-80 (C-terminal Lys-biotin).
T9 construct: also called Biotin PSGL-1(42-80) peptide
T9 peptide: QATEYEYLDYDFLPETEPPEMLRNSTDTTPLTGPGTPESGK
The experiment can be described thus: ELISA, streptavidin-immobilized biotin peptide. As to the method:
as §3

The target in experiment [11] is T10, Biotin PSGL-1(42-62) peptide, unmodified (human, C-terminal Lys-biotin).
T10 construct: Residues 42-62 followed by GGGK-biotin; also called WT; wild-type
T10 peptide: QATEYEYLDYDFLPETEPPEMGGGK
The experiment is described as follows: ELISA, streptavidin-immobilized biotin peptide. As for the experimental part: as §3

For experiment [12], the target named is T1, PSGL-1 endogenously expressed on HL-60 …. The experiment is described as follows: flow cytometry on HL-60 cells; against parent 19L04. As to the method:
as §1

Experiment [13] addresses T11, Biotin PSGL-1(42-62) F53A peptide (C-terminal Lys-biotin).
T11 peptide: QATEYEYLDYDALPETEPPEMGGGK
The experiment is described as follows: alanine-scan ELISA, streptavidin-immobilized biotin peptide.

Experiment [14] concerns the target T12, Biotin PSGL-1(42-62) D50A peptide (C-terminal Lys-biotin).
T12 peptide: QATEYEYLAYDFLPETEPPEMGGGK
Described as above.

B1: 20I15 (antibody, V domains shown)
VH: EVKLVESGGGLVQPGGSLSLSCAASGFTFTDYYMSWVRQPPGKALEWLGFIRNKANGYTTEYSASVKGRFTISRDNSQSILYLQMNALRAEDSATYYCARTYLRRGYFDVWGTGTTVTVSS
VL: DIVLTQSPASLAVSLGQRATISCRASKSVSTSGYSYMHWFQQKPGQPPKLLIYLASNLESGVPARFSGSGSGTDFTLNIHPVEEEDAATYYCQHSRELPLTFGAGTKLELK
notes: From mouse immunisation; only variable domains given; also called 20115
In the case of B1, the “HL-60 EC50 (normalized)” value in experiment [1] came to 1 fold.

B2: 18F02 (antibody, V domains shown)
VH: QVQLQQPGAELVKPGASVKLSCKASGYTFTSYWMHWVKQRPGQGLEWIGMIHPNSGRTNYNEKFKSKATLTVDKSSSTAYMQLSSLTSEDSAVYYCARSDYWGQGTTLTVSS
VL: DIVMTQAAFSNPVTLGTSASISCRSSKSLLHSDGITYLYWFLQRPGQSPQLLIYRMSNLASGVPDRFSGSGSGTDFTLRISRVEAEDVGVYYCAQMLEFPRTFGGGTKLEIK
notes: From mouse immunisation; only variable domains given
Consider B2, for which the binding result in experiment [2], in experiment [3], in experiment [4] and in experiment [5] was “binds” throughout. Also, in [6], the half-maximal effective concentration (EC50) was 70 nM.

B3: 16E17 (antibody, V domains shown)
VH: QIQLVQSGPELKKPGETVKISCKASGYAFTTYGMSWVKQAPGKGLKWMGWINTYSGVPKYADDFKGRFAFSLETSASTAYLHINNLKNEDTATYFCGRHYYGSSYFDYWGQGTTLTVSS
VL: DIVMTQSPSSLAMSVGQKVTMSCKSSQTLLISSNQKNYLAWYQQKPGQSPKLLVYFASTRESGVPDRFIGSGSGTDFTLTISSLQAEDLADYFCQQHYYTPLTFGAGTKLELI
notes: as for B2
Regarding B3, the EC50/EC50WTprot in [7] is approximately 100 fold. The molecule also returned a concentration giving a half-maximal response (EC50) in experiment [8] of 26.7 nM. The binding result in [9], in experiment [10] and in [11] was “no binding (tested: 10 nM)” each time.

B4: 19L04 (antibody, IgG4, V domains shown)
VH: B3 VH with A28T, K59T, H82Q, N88I, G97A, S104H
VL: DIMMTQSPSSLAMSVGQKVTLRCKSSQSLLNSSNQKNYLAWYQQKPGQSPKLLVYFASTRESGVPVRFIGSGSGTDFTLTISSMQAEDLADYFCQQHYFSPLTFGAGTKLELK
notes: as for B2
Consider B4, for which the “HL-60 EC50 (normalized)” value in experiment [12] came to 1 fold.

B5: 43B6 (antibody, V domains shown)
VH: EVQLQQSGPDLVKPGALVKISCKASGYSFTAYYIHWVKQSHGKSLEWIGRVNPNTGGTSYNPKFKGKAILNVDKSSSTAYMELRSLTSEDSAVYYCARSGSPYYRYDDWGQGTTLTVSS
VL: ENVLTQSPAIMSASPGEKVTMTCRASSTVNSTYLHWFQQKSGASPKLWIYGSSNLASGVPARFSGSGSGTSYSLTISSVEAEDAATYYCQQYSGYPLTFGAGTTLELK
notes: Control anti-PSGL-1 mAb, recombinant; only variable domains given; also called 43B3
With B5, the binding result in experiment [13] and in [14] was “binds” each time.
